Assay results taken from publication PMC8896507.

Key:
[1] = target: DNA-PK assembly (KU-DNA-DNA-PKcs) (human (endogenous in HeLa)) (UniProt P78527); test: SEC-MALS + other: SAXS
[2] = target: KU (KU70/KU80 heterodimer) (human (endogenous in HeLa)) (UniProt P12956); test: SEC-MALS + other: SAXS

weight of the dimer in the two-state SAXS fit [1]	stoichiometry N [2]	Substance
24%	–	DNA-PK assembly (KU-DNA-DNA-PKcs) (from UniProt P78527 1-4128; P12956 1-609; P13010 1-732) (complex)
–	2	KU (KU70/KU80 heterodimer) (from UniProt P12956 1-609; P13010 1-732) (complex)
